Target: surface GFP (GFP fused to the PDGF transmembrane domain) [GFP: P42212]
Test: cell-based or functional assay

## α-GFP nanobody (LaG16_2) synNotch Gal4VP64 receptor (from UniProt Q01705 1427-1752)
  fraction of T cells with BFP reporter expression at 24 hours: > 50%

Reference: patent US20250243257A1
